# Experimental data: publication PMC9675734
# What was measured:
# [1] = target: soluble domain of Arabidopsis thaliana cytochrome c1 (Arabidopsis thaliana) (UniProt Q9FKS5); test: SPR; SPRi; Cc1 immobilised by direct amine coupling on a CS SPRi-Biochip (10 and 15 uM drops); WT or Y48pCMF Cc flowed at 2.5 to 10 uM, 50 uL/min; 298 K; 10 mM sodium phosphate buffer pH 6.5; reference spots with rabbit serum albumin subtracted; 1:1 binding model
# [2] = target: soluble domain of Arabidopsis thaliana cytochrome c1 (Arabidopsis thaliana) (UniProt Q9FKS5); test: single-molecule force spectroscopy (AFM); Cc1 anchored on Au(111); Cc (E104C) anchored to the silicon AFM tip through a PEG27 linker; retraction at 1 um/s; 50 mM phosphate buffer pH 6.5; room temperature
# Target sequence in this assay (Q9FKS5 64-265): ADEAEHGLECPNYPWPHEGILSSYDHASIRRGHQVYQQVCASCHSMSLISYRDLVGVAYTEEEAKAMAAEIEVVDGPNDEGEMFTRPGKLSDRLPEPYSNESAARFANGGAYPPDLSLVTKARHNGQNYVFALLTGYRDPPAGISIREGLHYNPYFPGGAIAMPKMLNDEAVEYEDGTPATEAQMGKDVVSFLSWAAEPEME
# [3] = target: soluble domain of Arabidopsis thaliana cytochrome c1 (Arabidopsis thaliana) (UniProt Q9FKS5); test: dynamic force spectroscopy (AFM); Cc1 anchored on Au(111); Cc (E104C) anchored directly to Au-coated AFM tips by thiol-Au; retraction velocities 0.5 to 4 um/s; 50 mM phosphate buffer pH 6.5; Bell-Evans model
# Target sequence in this assay (Q9FKS5 64-265): as above
# [4] = target: soluble domain of Arabidopsis thaliana cytochrome c1 (Arabidopsis thaliana) (UniProt Q9FKS5)
# Target sequence in this assay (Q9FKS5 64-265): as above
# Chain of Y48pCMF cytochrome c E104C (P99999 1-48, stated change not applied): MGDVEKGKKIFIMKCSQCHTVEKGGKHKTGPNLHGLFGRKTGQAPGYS
Substance,Kd [1],koff [1],kon [1],"unbinding force Fr, centre of the Gaussian fit [2]","unbinding force Fr, mean [2]",rate of force-activated unbinding k^ou (Bell-Evans model) [3],"conductance of current blinks (EC-STM static break junction, bias 0.8 V, 50 mM phosphate buffer pH 6.5), Gaussian fit of the main peak [4]"
Y48pCMF cytochrome c (from UniProt P99999 1-105) (natural protein),357 nM,0.00358 s⁻¹,10000 M⁻¹ s⁻¹,–,–,–,–
Y48pCMF cytochrome c E104C (from UniProt P99999 1-105) (natural protein),–,–,–,77 pN,91 pN,48 s⁻¹,7.4e-06 G0
